Measured values as given in article PMC11933295, “Inhibiting hedgehog signal by a patched-1 antibody” (Cell Discovery, 2025).

Molecular target: T1, engineered human PTCH1 protein (PTCH1*, a functional PTCH1 variant with two cytosolic loops truncated) (Homo sapiens, stabilised)
T1 chain: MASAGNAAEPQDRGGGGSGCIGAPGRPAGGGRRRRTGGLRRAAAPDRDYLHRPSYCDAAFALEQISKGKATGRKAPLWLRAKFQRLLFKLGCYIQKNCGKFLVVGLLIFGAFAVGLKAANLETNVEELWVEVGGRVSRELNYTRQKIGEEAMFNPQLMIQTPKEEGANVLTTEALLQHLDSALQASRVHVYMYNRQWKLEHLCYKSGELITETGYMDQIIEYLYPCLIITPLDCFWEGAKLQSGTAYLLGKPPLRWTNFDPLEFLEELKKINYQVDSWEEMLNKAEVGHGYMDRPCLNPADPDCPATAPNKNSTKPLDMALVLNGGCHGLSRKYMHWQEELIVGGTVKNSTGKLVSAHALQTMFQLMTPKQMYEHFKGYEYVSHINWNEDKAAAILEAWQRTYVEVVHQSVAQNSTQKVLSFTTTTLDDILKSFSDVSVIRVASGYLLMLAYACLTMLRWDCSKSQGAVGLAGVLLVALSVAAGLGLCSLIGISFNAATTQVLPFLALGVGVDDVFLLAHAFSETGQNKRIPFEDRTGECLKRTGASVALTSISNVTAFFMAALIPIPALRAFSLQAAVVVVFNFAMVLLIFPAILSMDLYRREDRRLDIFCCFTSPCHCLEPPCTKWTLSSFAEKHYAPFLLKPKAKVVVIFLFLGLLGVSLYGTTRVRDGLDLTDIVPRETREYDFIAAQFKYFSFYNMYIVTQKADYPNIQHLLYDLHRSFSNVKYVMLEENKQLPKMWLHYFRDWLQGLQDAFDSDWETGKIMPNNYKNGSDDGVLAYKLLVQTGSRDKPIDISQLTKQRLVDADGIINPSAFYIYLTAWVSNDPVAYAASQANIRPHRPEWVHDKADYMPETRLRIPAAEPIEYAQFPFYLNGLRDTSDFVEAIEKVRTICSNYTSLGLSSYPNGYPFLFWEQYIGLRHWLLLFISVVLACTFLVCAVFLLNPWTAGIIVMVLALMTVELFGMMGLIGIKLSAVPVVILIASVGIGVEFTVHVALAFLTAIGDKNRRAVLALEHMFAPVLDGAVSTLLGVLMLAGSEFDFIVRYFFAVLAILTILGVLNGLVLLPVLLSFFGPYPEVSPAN
Assay: cell-based or functional assay

- IC50 of the dose-dependent inhibition of HH signaling, Dual-Luciferase Reporter Assay in SHH-Light II cells; pair blocked: SHH with PTCH1: ~77.8 nM
B1: Fab^6H3 (Fab, V domains shown)
VH: EVQLVESGGGLVKPGGSRKLSCVASGFTLSDYGMHWVRQAPEKGLEWVAYIGSDSYTIYHADTMKGRFTISRDNAKNTLFLQMTSLRSEDTAMYYCGRNYGMDYWGQGTS
VL: VLTQSPAIMSASLGERVTLTCTASSSVTSSYLHWYQQKPGSSPKLWIYSTSNLPFGVSPRFSGSGSGTSFSLTISSMEAEDAATYYCHQFHRSPYTFGGGTK
